Experimental data from US20220267442A1.

Molecular target: recombinant human TGF-β1 (human) (UniProt P01137)
Assay: cell-based or functional assay

Sequence of recombinant human TGF-β1 (human) (P01137 279-390 limits assumed): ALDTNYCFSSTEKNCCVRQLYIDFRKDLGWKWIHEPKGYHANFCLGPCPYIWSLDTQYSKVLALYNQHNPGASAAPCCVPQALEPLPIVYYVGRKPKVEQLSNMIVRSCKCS

B1: anti-TGF-β (αTGF-β, 1D11 clone) (antibody, from another filing, V domains shown)
VH: QVQLQQSGPELVRPGASVKLSCKASGYIFITYWMNWVKQRPGQGLEWIGQIFPASGSTNYNEMFEGKATLTVDTSSSTAYMQLSSLTSEDSAVYYCARGDGNYALDAMDYWGQGTSVTVSS
VL: DIVLTQSPASLAVSLGQRATISCRASESVDSYGNSFMHWYQQKSGQPPKLLIYLASNLESGVPARFSGSGSRTDFTLTIDPVEADDAATYYCQQNNEDPLTFGAGTKLEIK
B1 gave a 80% maximal inhibition (IC80), TGF-β signaling reporter assay (TGF-β/SMAD luciferase in HEK293 cells, 10 ng/mL recombinant human TGF-β1) of 25 nM.
